Results published in US20210338733A1 (University of Pennsylvania, published 2021).

Target: T1, TnMUC1 in whole cell lysates of DU145 prostate cancer cells (single band of >200 kDa) (UniProt P15941 24-1255, limits assumed, Tn glycoform of MUC1 (aberrant O-glycosylation); sites not stated)
T1 construct: mature; also called mature TnMUC1
Experiment: Western blot on whole cell lysates of the prostate cancer cell line DU145

T1 sequence (P15941 24-1255 limits assumed): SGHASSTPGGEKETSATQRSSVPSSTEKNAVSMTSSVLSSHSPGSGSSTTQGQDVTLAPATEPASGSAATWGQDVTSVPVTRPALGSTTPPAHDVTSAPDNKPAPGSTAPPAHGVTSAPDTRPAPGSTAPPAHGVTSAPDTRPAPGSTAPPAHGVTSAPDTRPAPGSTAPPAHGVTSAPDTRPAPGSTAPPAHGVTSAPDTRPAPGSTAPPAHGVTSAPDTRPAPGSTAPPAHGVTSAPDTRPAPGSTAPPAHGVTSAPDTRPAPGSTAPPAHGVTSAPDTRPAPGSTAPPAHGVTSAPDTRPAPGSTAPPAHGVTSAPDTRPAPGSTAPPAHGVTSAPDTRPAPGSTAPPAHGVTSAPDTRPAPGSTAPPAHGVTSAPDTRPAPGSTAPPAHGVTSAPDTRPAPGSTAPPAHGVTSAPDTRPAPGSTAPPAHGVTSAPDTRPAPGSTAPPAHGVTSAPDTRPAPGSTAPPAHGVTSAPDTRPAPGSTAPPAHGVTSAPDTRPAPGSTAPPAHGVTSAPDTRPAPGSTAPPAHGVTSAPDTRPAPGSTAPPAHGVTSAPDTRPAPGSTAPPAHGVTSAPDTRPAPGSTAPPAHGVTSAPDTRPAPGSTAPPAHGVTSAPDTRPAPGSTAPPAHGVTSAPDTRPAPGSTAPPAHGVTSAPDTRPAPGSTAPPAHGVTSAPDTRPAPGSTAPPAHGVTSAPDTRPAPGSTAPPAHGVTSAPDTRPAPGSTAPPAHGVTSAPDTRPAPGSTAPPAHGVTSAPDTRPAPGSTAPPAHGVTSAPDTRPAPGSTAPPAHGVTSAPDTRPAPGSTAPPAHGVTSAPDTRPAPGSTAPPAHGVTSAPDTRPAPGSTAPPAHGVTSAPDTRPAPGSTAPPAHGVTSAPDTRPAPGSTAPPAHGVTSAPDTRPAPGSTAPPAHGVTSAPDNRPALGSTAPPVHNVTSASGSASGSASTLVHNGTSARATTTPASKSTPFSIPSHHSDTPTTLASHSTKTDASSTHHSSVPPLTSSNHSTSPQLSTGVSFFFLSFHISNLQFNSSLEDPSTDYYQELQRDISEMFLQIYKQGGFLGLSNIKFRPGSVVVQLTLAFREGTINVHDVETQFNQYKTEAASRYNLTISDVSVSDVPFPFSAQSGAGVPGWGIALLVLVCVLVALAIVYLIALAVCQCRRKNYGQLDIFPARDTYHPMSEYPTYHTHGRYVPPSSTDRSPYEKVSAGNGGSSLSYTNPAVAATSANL

B1: Anti-TnMUC1 murine monoclonal antibody clone 5E5 (antibody, V domains shown)
VH: QVQLQQSDAELVKPGSSVKISCKASGYTFTDHAIHWVKQKPEQGLEWIGHFSPGNTDIKYNDKFKGKATLTVDRSSSTAYMQLNSLTSEDSAVYFCKTSTFFFDYWGQGTTLTVSS
VL: ELVMTQSPSSLTVTAGEKVTMICKSSQSLLNSGDQKNYLTWYQQKPGQPPKLLIFWASTRESGVPDRFTGSGSGTDFTLTISSVQAEDLAVYYCQNDYSYPLTFGAGTKLELK
notes: also called 5E5 mAb; mAb 5E5
B1: binds.
